Results from US20070009988A1.

Columns and labels:
gliadin 33mer … (wheat) = experiment: cell-based or functional assay
[1] = target: T1, gliadin 14mer PQPQLPYPQPQLPY
T1 chain: PQPQLPYPQPQLPY

[2] = target: T2, gliadin 33mer LQLQPFPQPQLPYPQPQLPYPQPQLPYPQPQPF
T2 chain: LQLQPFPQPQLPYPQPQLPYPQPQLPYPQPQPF

Q: Which digestion of the peptide over 20 h, E/S=1/25 (gliadin 33mer … (wheat)) does the source give for Pronase here?
A: < 40%

B1: recombinant ruLAP2 (aminopeptidase II of Trichophyton rubrum) produced in P. pastoris (protein)
chain: RLVGQEPFGWPFKPMVTQDDLQNKIKLKDIMAGVEKLQSFSDAHPEKNRVFGGNGHKDTVEWIYNEIKATGYYDVKKQEQVHLWSHAEAALNANGKDLKASAMSYSPPASKIMAELVVAKNNGCNATDYPANTQGKIVLVERGVCSFGEKSAQAGDAKAAGAIVYNNVPGSLAGTLGGLDKRHVPTAGLSQEDGKNLATLVASGKIDVTMNVISLFENRTTWNVIAETKGGDHNNVIMLGAHSDSVDAGPGINDNGSGSIGIMTVAKALTNFKLNNAVRFAWWTAEEFGLLGSTFYVNSLDDRELHKVKLYLNFDMIGSPNFANQIYDGDGSAYNMTGPAGSAEIEYLFEKFFDDQGIPHQPTAFTGRSDYSAFIKRNVPAGGLFTGAEVVKTPEQVKLFGGEAGVAYDKNYHRKGDTVANINKGAIFLNTRAIAYAIAEYARSLKGFPTRPKTGKRDVNPQYSKMPGGGCGHHTVFM
Q: What does the source list for B1?
A: digestion of the peptide, 37 C, 4 h, RP-HPLC and ESI-MS [1]: the 14mer is not digested with ruLAP2 within 4 h. There is no change in the HPLC profile when compared with the control. In fact, digestion results only in the cleavage of the N-terminal Proline.; mass loss after overnight digestion (ESI-MS), E/S 1:20 and 1:100 (Gly-Ser-proNPY): incubation with ruLAP2 results in the cleavage of the two N-terminal residues Gly-Ser with a theoretical loss of 144.1 amu (found 144.2); mass loss after overnight digestion (ESI-MS) (Ala-proNPY): the N-terminal alanine was almost totally removed (molecular mass loss of 71 amu) from proNPY

B2: microsomal leucine aminopeptidase from porcine kidney (Sigma) (protein)
chain: YAQEKNKNAEHVPQAPTSPTITTTAAITLDQSKPWNRYRLPTTLLPDSYNVTLRPYLTPNADGLYIFKGKSIVRLLCQEPTDVIIIHSKKLNYTTQGHMVVLRGVGDSQVPEIDRTELVELTEYLVVHLKGSLQPGHMYEMESEFQGELADDLAGFYRSEYMEGNVKKVLATTQMQSTDARKSFPCFDEPAMKATFNITLIHPNNLTALSNMPPKGSSTPLAEDPNWSVTEFETTPVMSTYLLAYIVSEFQSVNETAQNGVLIRIWARPNAIAEGHGMYALNVTGPILNFFANHYNTSYPLPKSDQIALPDFNAGAMENWGLVTYRENALLFDPQSSSISNKERVVTVIAHELAHQWFGNLVTLAWWNDLWLNEGFASYVEYLGADHAEPTWNLKDLIVPGDVYRVMAVDALASSHPLTTPAEEVNTPAQISEMFDSISYSKGASVIRMLSNFLTEDLFKEGLASYLHAFAYQNTTYLDLWEHLQKAVDAQTSIRLPDTVRAIMDRWTLQMGFPVITVDTKTGNISQKHFLLDSESNVTRSSAFDYLWIVPISSIKNGVMQDHYWLRDVSQAQNDLFKTASDDWVLLNVNVTGYFQVNYDEDNWRMIQHQLQTNLSVIPVINRAQVIYDSFNLATAHMVPVTLALDNTLFLNGEKEYMPWQAALSSLSYFSLMFDRSEVYGPMKKYLRKQVEPLFQHFETLTKNWTERPENLMDQYSEINAISTACSNGLPQCENLAKTLFDQWMSDPENNPIHPNLRSTIYCNAIAQGGQDQWDFAWGQLQQAQLVNEADKLRSALACSNEVWLLNRYLGYTLNPDLIRKQDATSTINSIASNVIGQPLAWDFVQSNWKKLFQDYGGGSFSFSNLIQGVTRRFSSEFELQQLEQFKKNNMDVGFGSGTRALEQALEKTKANIKWVKENKEVVLNWFIEHS
Q: With B2 as the molecule, how does the “digestion of the peptide, RP-HPLC and ESI-MS” value [2] read?
A: incubation with microsomal porcine kidney aminopeptidase results only in a partial deletion of N-terminal Leu and C-terminal Phe (due to a carboxypeptidasic contaminant)

B3: cytosolic leucine aminopeptidase from porcine kidney (Sigma) (protein)
chain: TKGLVLGIYSKEKEDDAPQFTSAGENFDKLVSGKLREILNISGPPLKAGKTRTFYGLHEDFSSVVVVGLGKKGAGVDDQENWHEGKENIRAAVAAGCRQIQDLEIPSVEVDPCGDAQAAAEGAVLGLYEYDELKQKKKVVVSAKLHGSGDQEAWQRGVLFASGQNLARHLMETPANEMTPTRFAEVIEKNLKSASSKTDVHIRPKSWIEEQEMGSFLSVAKGSEEPPVFLEIHYKGSPDASDPPLVFVGKGITFDSGGISIKASANMDLMRADMGGAATICSTIVSAAKLDLPINLVGLAPLCENMPSGKANKPGDVVRAKNGKTIQVDNTDAEGRLILADALCYAHTFNPKVIINAATLTGAMDIALGSGATGVFTNSSWLWNKLFEASIETGDRVWRMPLFEHYTKQIVDCQLADVNNIGKYRSAGACTAAAFLKEFVTHPKWAHLDIAGVMTNKDEVPYLRKGMAGRPTRTLIEFLLRFSQDSA
Q: B3 was tested. Which “digestion of the peptide, RP-HPLC” value [2] did it give?
A: Cytosolic porcine kidney aminopeptidase is totally inactive towards the 33mer
